Measured values published in US6573045, “Methods and kits for discovery of RNA-binding compounds” (Ribotargets, Ltd.).

What was measured:
[1] = target: T1, Rev peptide (Human immunodeficiency virus 1); assay: FRET quenching; ±23; TAMRA-Rev and DABCYL-RRE; 50 mM Tris pH 8, 50 mM KCl, room temp; conditions: protein: synthetic; tags: chemically synthesised peptide; N-terminal TAMRA; label: 3'-DABCYL or 5'-FAM; hairpin
[2] = target: T1, Rev peptide; assay: FRET quenching; TAMRA-Rev and DABCYL-TAR; 50 mM Tris pH 8, 50 mM KCl, room temp; conditions: protein: synthetic; tags: chemically synthesised peptide; N-terminal TAMRA; label: 3'-DABCYL or 5'-Cy3; hairpin with bulge

| Binder | Kd [1] [µM] | Kd [2] [µM] |
| --- | --- | --- |
| CGUGUGGGCGCAGCGUCAAUGACGCUGCGGUACACACG (ssRNA) [RRE RNA] | 0.137 |  |
| CCCAGAUCUGAGCCUGGGAGCUCUCUGGG (ssRNA) [TAR RNA 29-mer] |  | 11 |
